In patent US20230102344A1 (MARENGO THERAPEUTICS, published 2023):
Residue numbers refer to the chain shown, from its start. Names and notes keep the numbering of the source. One block for each binder: values may come before it.

Legend:
[1] = target: T1, human TCRvβ (BIM0444) (human); test: SPR (Biacore): antibody captured via anti-human Fc on CM5, BIM0444 as analyte, 1:1 fit
T1 construct: also called human TCRβvP; human TCRvβ 6-5

[2] = target: T2, CD33 expressed on cells (MOLM-13, MV411, HL60) (human, UniProt P20138 18-364); test: binding to CD33+ MOLM-13 cells (cell binding assay)
T2 construct: whole, on cells; also called CD33+ MOLM-13 cells; CD33-expressing MOLM-13 cells

[3] = target: T3, Human NKp30 (BKM0179) (human, UniProt O14931 19-135, limits assumed); test: SPR (Biacore T200): human NKp30 BKM0179 captured via anti-mouse Fc on CM5, antibody as analyte, 1:1 fit
T3 sequence (looked up): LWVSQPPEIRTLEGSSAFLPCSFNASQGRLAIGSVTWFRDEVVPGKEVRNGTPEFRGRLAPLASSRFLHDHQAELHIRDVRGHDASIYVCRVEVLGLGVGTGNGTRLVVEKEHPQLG

T1 sequence (A0A0K0K1A5 22-114): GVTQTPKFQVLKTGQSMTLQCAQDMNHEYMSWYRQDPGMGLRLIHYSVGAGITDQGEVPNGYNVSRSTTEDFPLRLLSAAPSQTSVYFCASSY
T2 sequence (P20138 18-364): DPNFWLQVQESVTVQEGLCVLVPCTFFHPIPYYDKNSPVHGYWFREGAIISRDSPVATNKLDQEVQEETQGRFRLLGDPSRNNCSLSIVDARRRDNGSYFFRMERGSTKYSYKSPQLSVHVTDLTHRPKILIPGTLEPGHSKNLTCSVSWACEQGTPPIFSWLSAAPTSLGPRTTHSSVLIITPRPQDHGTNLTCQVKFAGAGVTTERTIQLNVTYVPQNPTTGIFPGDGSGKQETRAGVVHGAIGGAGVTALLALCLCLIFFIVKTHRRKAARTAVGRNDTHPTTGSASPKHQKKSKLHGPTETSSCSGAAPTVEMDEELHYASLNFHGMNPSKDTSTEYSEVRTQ

B5: BKM0140 (scFv)
scFv: EIQLLESGGGLVQPGGSLRLSCAVSGFSITTTGYHWNWVRQAPGKGLEWVGYIYSSGSTSYNPSLKSRFTISRDTSKNTFYLQMNSLRAEDTAVYYCARGDWHYFDYWGQGTMVTVSSGGGGSGGGGSGGGGSGGGGSSSETTQPPSVSVSPGQTASITCSGEKLSDKYVHWYQQKPGQSPVMVIYENDRRPSGIPERFSGSNSGNTATLTISGTQAMDEADYFCQFWASTNSAVFGGGTQLTVL
notes: also called BJM0407 VL-D92A
- Kd [3]: 3.3 nM

B6: BKM0145 (scFv)
scFv: B5 scFv with N62A, N232A
notes: also called BJM0407 VH-N60A-VL-D92A-N95A
- Kd [3]: 4.2 nM

B7: BKM0143 (scFv)
scFv: B5 scFv with N62A, A229D
notes: also called BJM0407 VH-N60A
- Kd [3]: 1.45 nM

B8: BKM0141 (scFv)
scFv: B5 scFv with A229D, N232A
notes: also called BJM0407 VL-N95A
- Kd [3]: 3 nM

B9: BJM1079 (scFv)
scFv: EIQLLESGGGLVQPGGSLRLSCAVSGFSITTTGYHWNWVRQAPGKGLEWVGYIYSSGSTSYNPSLKSRFTISRDTSKNTFYLQMNSLRAEDTAVYYCARGDWHYFDYWGQGTMVTVSSGGGGSGGGGSGGGGSGGGGSDSVTTQSPLSLPVTLGQPASISCSGEKLSDKYVHWYQQRPGQSPRMLIYENDRRPSGVPDRFSGSNSGNDATLKISRVEAEDVGVYFCQFWDSTNSAVFGGGTKVEIK
notes: only 'BJM0411 Parental'; also called BJM0411 Parental
- Kd [3]: 1.26 nM

B12: BKM0139 (scFv)
scFv: B9 scFv with D230A
notes: also called BJM0411 VL-D92A
- Kd [3]: 3.2 nM

B13: BKM0144 (scFv)
scFv: B9 scFv with N62A, D230A, N233A
notes: also called BJM0411 VH-N60A-VL-D92A-N95A
- Kd [3]: 6.4 nM

Next, values leading:

- Kd [1]: 11 nM
B1: BJM0898 (antibody, V domains shown)
VH: QVQLVQSGAEVKKPGSSVKVSCKASGTDFKLTYIHWVRQAPGQGLEWMGRIFPGSGNVKYNEKFKGRVTITADTSTSTAYMELSSLRSEDTAVYYCAVSYYSYDVLDYWGQGTTVTVSS
VL: DIQMTQSPSFLSASVGDRVTITCKASQNVDNRVAWYQQKPGKAPKALIYSSSHRYKGVPSRFSGSGSGTEFTLTISSLQPEDFATYFCQQFKSYPLTFGQGTKLEIK

- Kd [1]: 2.7 nM
B2: BJM0900 (antibody, V domains shown)
VH: B1 VH with T27H, K30R, F52S, P53A
VL: B1 VL with D30A, N31D

- binding result [2]: binds
B3: BJM0387 (bispecific antibody, not shown: a dimerising Fc or GST; large carriers)
heavy: QVQLVQSGAEVKKPGSSVKVSCKASGYSFTTYYIHWVRQAPGQGLEWMGWFFPGSGNIKYNEKFKGRVTITADTSTSTAYMELSSLRSEDTAVYYCAGSYYSYDVLDYWGQGTTVTVSSGGGGSGGGGSGGGGSGGGGSDIQMTQSPSFLSASVGDRVTITCKASQNVGINVVWHQQKPGKAPKALIYSSSHRYSGVPSRFSGSGSGTEFTLTISSLQPEDFATYFCQQFKSYPLTFGQGTKLEIKGGGGSQVQLVQSGAEVKKPGSSVKVSCKASGYTFTDYNMHWVRQAPGQGLEWIGYIYPYNGGTGYNQKFKSKATITADESTNTAYMELSSLRSEDTAVYYCARGRPAMDYWGQGTLVTVSS
light: DIQMTQSPSSLSASVGDRVTITCRASESVDNYGISFMNWFQQKPGKAPKLLIYAASNQGSGVPSRFSGSGSGTDFTLTISSLQPDDFATYYCQQSKEVPWTFGQGTKVEIK
notes: also called anti-CD33×TCRvβ antibody BJM0387

- Kd [3]: 1.48 nM
B4: BJM1078 (antibody, V domains shown)
VH: EIQLLESGGGLVQPGGSLRLSCAVSGFSITTTGYHWNWVRQAPGKGLEWVGYIYSSGSTSYNPSLKSRFTISRDTSKNTFYLQMNSLRAEDTAVYYCARGDWHYFDYWGQGTMVTVSS
VL: SSETTQPPSVSVSPGQTASITCSGEKLSDKYVHWYQQKPGQSPVMVIYENDRRPSGIPERFSGSNSGNTATLTISGTQAMDEADYFCQFWDSTNSAVFGGGTQLTVL
notes: only 'BJM0407 Parental'; also called BJM0407 Parental

- Kd [3]: 3.2 nM
B10: BKM0138 (scFv)
scFv: B9 scFv with N233A
notes: also called BJM0411 VL-N95A

- Kd [3]: 1.28 nM
B11: BKM0142 (scFv)
scFv: B9 scFv with N62A
notes: also called BJM0411 VH-N60A
